Assay results taken from the DeepSol protein solubility set.

Assay: soluble on expression in E. coli; label from the status in PepcDB or PDB records

| Sequence | soluble on expression in E. coli |
| --- | --- |
| MNELTKQMQQIMHPRAVLVAYECETTGYSTPRSYLELRPVNEKGRMGAGIPVTYEFMNSLVESYTESMSGIPHGRIPGNMLLCDSRKGRERYIWYNPPQKRKMYFQDGLHITDGTFNVPGVIYVVERECMDIHAFKGAIPEERTELYLAPFFNVAGANVCLGSSSPKKPQDMDFLEFQEYWEKRFWMSEFSHLGGNRNPTRSNLVSVTEHARNNPFDYSELQQSGKKLKDILA | not soluble |
| MNEMWLHRADLAESAINERHASRLWMLPRTNLAVVAWPPTAKERLFYRWHYWWQAHYLDCLIDAASRRTTKARKQRIRDTIVGIRLRNLGRLTKNNYYDDKSWLALALDRERRLNKRAKREYLRVLEGNIAAGQDDIQGVLPWRVGEHFFNVPTNGPAAIMLARNGEVEQARKLVDWIFDNLINDKGLVMDGLRMSMRGPEIVDPVYPYCQGVVIGACIEIAEALPFEESVQYLAHARAVIHAVAKEMATPEGVINAATGDGDGGLFKGILMRYLADAAVRLPEDGPANIATKKIAKRLVMASAESVWEHRLEVDGLPVFATDWCDDARLPHNYGVGGSALSDIVRVVRIDERDLSVQLSGWMLLEAAARVSLVDLEHHHHHH | soluble |
| MNENGATPVAAARRHRPLPAERATSNSNETGLLINVIRSLTSSVSEDQREVEKSRLEKGYKESGALIDRLVKNHQQDVEKCLVSFRDVSSKISNCRERIHNVRNALHTVKSLLELRRDDLKKLWHENAQQKSVCEIMAKLEELREAPSKIENLISKEQYQQAADTVTESRELINGRLSRVEGLSHLSAEIERFTKILIDKINDTLVNMLVVEPFEKHLLHIVRTIPEHRINQNAYCHSLSTKSRSGSGSVSSFSDVSAKSRIVSSVEALSTLFRTVEERHWDVDRLMMLGKNMIDKMIVNTVQVMKIGANIDESNEGDTTHLKQLMQLLSAQFDSASQQHAEFGVLVEKQLGRKDVVTSFWRSAQSAIEVVVSEHLDINPLLEKQNVLGTASRKQLFRFENTACATPNANSSSHRTKAVICKPSAYNIKVIFPILSRLMETTEKNINDSPCELRRFMHSFVMEVFVERVKGELASRIEGALRGGEAVRVSTNKKILPSCEKVLNLCKEVQDLIVSIDLYADRFAALWLLVLTDYFKNMTDVYDRMTPKNPDPSLPNSEALPTRRQKISAAWTADDDISRLLMSLPNWHAASISPMTPAVESELDVGERNKRESEILIGNLGTQAQNSLSESDLITDMNDIKMFASLHESLRWFSDEIRELVHSLPANVKMMLDTCMVQVRLKDGQMIDNNSVPSAIEDCVRRLESIADSCLLLLHIEIRVHCFFHLAPLAKYRNTSSHNEVDPEVVALGKDLHQFHDNLKDVLSPAKLSYVFDGLGHLCASLFIHYSQFMPRLTEAAKKRVCRNVWGVQQRLSRITNRRESDLDRARAFFDLLLDNTPDGILAIVPEKRSQFTATELNYLLALSVRSDKTLASQPGALEKRQMVLNSILNQKK | not soluble |
| MNEPPVSVVLPTYDRPEILRNAVKSVQEQTYRHIELVVVDDHSPTPAADTLSPLSFDELTVEIIRHEENRGANEARNTGIRESTGEYIAFLDDDDDWAPSKIEKQVAVFREASPEVGVVYTGSEYVYDDYVRTVVFSLEGDVTEEMLRGRSLGEFTTLMVRRDVAMAAGLPDTDFPSWQDRDWLLRLSCHCKFKTVPEALTTRRRKTGEDSISDNFEEKRDISYPLFIEKHRDLAAEYGWRCERAFMAATTESLGQEALKNGYYADAKKYFLKALRYHPLDRSRLVYALVAYGGKYTYGAAHTLASLLHRVRTDTIHKLEHHHHHH | not soluble |
| MNEQWMSALPLDNVKDISPVSGGDVNEAFKVTTVEEDIFFLLVQRQRSEAFYAAEIAGLNEFENAGITAPRVIASGEINGDAYLLLSFLEEGSQGSQRELARLVARMHSQYQQDNKFGFRLPHEGADISFDNSWTETWKEIFINRRMDHLQDELLRVGLWKQEDKKMYERVRKVIVDELSNHTSKPSLLHGDLWGGNYMFLTNGQPALFDPAPLYGDREFDIGITTVFGGFTQEFYDEYNQQLPLAKGSQKRIEFYRLYLLMIHLLKFGGMYADSVQRSMKIILELEHHHHHH | soluble |
| MNERHVLVVFPHPDDEAFGVSGTIAEHAQNGTPVTYACLTLGEMGRNMGVPPFANRETLPHIRKQELEEACRILGIHDLRLLGYRDKTVEFEDEEELADQIAAIVAETNPSLVITFYPGYSVHPDHDACGAAVIRALKRWPKEERPTVHCVAFAKNCEQDLGQPDVVRDVSSVIDTKLAAIRAHRSQTEGLMQAASKRGDALAWLKTERFWTYRWDD | soluble |
| MNETIAFRPEGRASIKDVVVNYTLASLDELEQLHPALNLLAHPSIVRGSHDFFVRCYDAGVQHAQAGAAETVAVLPDSLPQERQRSGLLCAAAGRLDALRQPLTHNRLCDLASQFCAGMADVDSETRSGFYTVRSISLPVYRRLLRDQHSHGVCLQQALLHLLAWKSDSPWARQQAQRLLWQGGVLGDKGEFALMTLDDELRERQIGWPGLWSLLAVTGFLAKFPAGPIFAD | not soluble |
| MNFDEIDKTFGTKNRDQGYDLLKARLDKGDRSVEVLWRLAQVIHEKSACVPKAQRKASVTEGLKFAEEAVQKDPNHFKALKWNAVLTGQATEYMATKEKLECSKKFKELLDKTLAKEPKDTAVLHLRGRYKYSVASLTWLEKKLAATFYQQPPSHSYEEANEDFLAAYKVNPKWMENTFYVSKCYVAIKDKANARKYLTEVCDIEPYSDAEQEFADDAKQMLSKL | soluble |
| MNFGESYCSFHCSWCQPLLDSLSKESCWYLNFQSVDESQFYDETYFASPKNKTPRVSGKLKEKLLQFVKTPEDLDRPRKRAIIHICRRIKKITGQDIDPEYISKLLYGLKRARRDKFRKINREIFRGLNWDFTQFEKCTFKCVLN | not soluble |
| MNFTEMTSMEPIVTESRTPIPPVTDADRKAAFGNLQGHAIHDSAINYLVLLDQLEWQRSDNTNNFSWSVNSWIGGDTDRIWLKSEGERSNGETEAAEAQLLWGHAVGPWWDLVAGVRQDFRPASARTWAAVGFQGLALYNFESEITGFVSNGGKAALRLGGEYDVLLTNRLILQPSYEVNFYSQDDESRGRGRGLTDTELGLRLRYEIRREFAPYIGVSWNQLYGKTSDMAKREGEKDHQVVFLAGARIWFLEHHHHHH | not soluble |
| MNGAQWVVHALRAQGVKTVFGYPGGAIMPVYDALYDGGVEHLLCRHEQGAAMAAIGYARSTGKTGVCIATSGPGATNLITGLADALLDSVPVVAITGQVSAPFIGTDAFQEVDVLGLSLACTKHSFLVQSLEELPRIMAEAFEVANAGRPGPVLVDIPKDIQLASGELEPWFTTVANEATFPQADVEQARQMLEQAKKPMLYVGGGVGMAQAVPALRKFIAVTQMPVTCTLKGLGAVEADYPYYLGMLGMHGTKAANFAVQECDLLIAVGARFDDRVTGKLNTFAPNASVIHMDIDPAEMNKLRQAHVALQGDLNSLLPALQQPLKIDAWRQSCAELRAEHAWRYDHPGETIYAPLLLKQLSERKPADSVVTTDVGQHQMWSAQHMTYTRPENFITSSGLGTMGFGLPAAVGAQVARPNDTVICISGDGSFMMNVQELGTVKRKQLPLKIVLLDNQRLGMVRQWQQLFFQERYSETTLTDNPDFLMLASAFGIPGQHITRKDQVEAALDTMLASEGPYLLHVSIDELENVWPLVPPGASNSEMLEKLS | not soluble |
| MNGASRGDVQRPTPVQAPAKRPIPPTVFRFEKASKIGTSLDTTPKELPIRRPVPLPGPRFVKDVNPSPPATSSPNVQTQCHQPPVVRSQTHQASVSQTTPTQTTPSQYTPASVSTARAPQFHRSSHVTPSQQQRIEQAFGPAPVSQSQPQNGSYIQYNEPSTSVASTTTSFYSPNESEPVFTHAISFKPNEPENGQKAREQLELLDSGKINEINQSKVPTTIELPPNCKLFQYSWVLDGIPRTLLVPMPMDATEEDVKAMLPKTLEMDSNLFNNARPRDELPVLSFPNGTVPNVEMIGPKVQQPMLVNPKQFNRIMRRREMRQQLEASGRLPLARQKYLHESRHLHALKRKRGLDGRFDNTKTAESSSMVSSTTSPRKLKRRNRLPGEETSDSSSIVLPSPVEIQPKGGIVNSSMPSTSTGYINNGMDHQTDYIEHQQPMSTYDQYHDHVQYIAPDGNVNYHNNHDNGVDLTGSDGQSFTNL | soluble |
